We go through two molecules from US20040043378A1 (published 2004).

Test [1] has as its target T1, P/CAF (p300/CBP-associated factor), HA-tagged, expressed in cells (human, UniProt Q92831 1-832).
T1 construct: also called HA-P/CAF
The test is described as follows: interaction in cells, western blot (FLAG-Tat, HA-P/CAF).

Test [2] has as its target T2, Tat AcK28 peptide TNCYCK-AcK-CCFH (SEQ ID NO:58) (Human Immunodeficiency Virus type 1).
T2 construct: Synthetic peptide
The test can be described thus: NMR 2D 1H-15N HSQC titration; 'binds weakly'.

In test [3] the target is Tat AcK50 peptide SYGR-AcK-[…] (SEQ ID NO:50) (Human Immunodeficiency Virus type 1). The test can be described thus: NMR 2D 1H-15N HSQC titration; 'interacts strongly'.

B1: Tat K50R/K51R mutant protein, FLAG-tagged, expressed in cells (other)
chain: MEPVDPRLEPWKHPGSQPKTASNNCYCKRCCLHCQVCFTKKGLGISYGRRRRRQRRRAPQDSKTHQVSLSKQPASQPRGDPTGPKESKKKVERETETDPED
notes: also called Tat-RR; Tat double mutant containing K50R/K51R
For the molecule B1, the binding result in test [1] is “no binding”.

B2: bromodomain of P/CAF (residues 719-832 of SEQ ID NO:2) (other)
chain: SKEPRDPDQLYSTLKSILQQVKSHQSAWPFMEPVKRTEAPGYYEVIRFPMDLKTMSERLKNRYYVSKKLFMADLQRVFTNCKEYNAAESEYYKCANILEKFFFSKIKEAGLIDK
notes: also called P/CAF bromodomain; the bromodomain
Turning to B2, the results for the dissociation constant Kd in test [2] and in test [3] were under 300 µM and about 20 µM, respectively.
